Results published in patent US20110091994A1, “Methods for Screening Compounds for Treating and/or Preventing an Hepatitis C Virus Infection” (priority 2008, published 2011).

What was measured:
[1] = molecular target: T1, HCV ORFs (Gal4-DB fusions) (Hepatitis C virus genotype 1b, UniProt Q9WMX2); format: binding, HCV genotype 1b, isolate con1; conditions: HCV protein NS3 as bait; human protein as prey
T1 construct: expressed in transfected cells; host or cells: Saccharomyces cerevisiae MAV203 (IMAP1) / AH109 (IMAP2)
Protocol: (§1) HCV ORFs were transferred from pDONR223 into bait vector (pPC97) to be expressed as Gal4-DB fusions in yeast. Two different screening methods were used (IMAP1 and IMAP2). Both for IMAP1 and IMAP2 strategies and because bait constructs sometimes self-transactivate reporter genes, SD-L-H culture medium were supplemented with 3-aminotriazole (3-AT). Appropriate concentrations of this drug were determined by growing bait strains on SD-L-H medium supplemented with increasing concentrations of 3-AT. […] For IMAP1, bait vectors were introduced in MAV203 yeast strain and both human spleen and foetal brain AD-cDNA libraries (Invitrogen) were screened by transformation as described (7). All primary positive clones (selected on SD-W-L-H+3-AT) were tested by further phenotypic assay using two additional reporter genes: LacZ (X-Gal colorimetric assay) and URA3 (growth assay on 5-FOA supplemented medium). […] AD-cDNA were PCR-amplified and inserts were sequenced to identify interactors. IMAP2 screens were performed by yeast mating, using AH109 and Y187 yeast strains (Clontech (8)). Bait vectors were transformed into AH109 (bait strain) and human spleen and foetal brain AD-cDNA libraries (Invitrogen) were transformed into Y187 (prey strain). Single bait strains were mated with prey strains then diploids were plated on SD-W-L-H+3-AT medium. Positive clones were maintained onto this selective medium for 15 days to eliminate any contaminant AD-cDNA plasmid (9). AD-cDNAs were PCR amplified and inserts were sequenced.
(§2) We have developed a bioinformatic pipeline that assigns each IST to its native human genome transcript. […] Gal4 motif was searched (last 87 bases of GAL4-AD), sequences downstream of this motif were translated into peptides and aligned using BLASTP against the REFSEQ (http://www.ncbi.nlm.nih.gov/RefSeq/) human protein sequence database (release 04/2007). Low-confidence alignments (E value>10^−10, identity <80%) and premature STOP codon containing sequences were eliminated. Only in-frame proteins and high quality sequences were further considered

[2] = system: HCV ORFs (Gal4-DB fusions); format: binding, HCV genotype 1b, isolate con1; conditions: human protein listed by gene symbol; the value names the HCV protein it interacts with
Protocol: as §1, §2

[3] = molecular target: T2, HCV proteins (Hepatitis C virus genotype 1b, UniProt Q9WMX2); experiment: Validation by Y2H pairwise matrices; format: binding; conditions: validation of interaction with HCV protein NS3;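 note: yeast two-hybrid pairwise tests of interactions first found in Y2H screens of HCV bait proteins against human cDNA libraries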
T2 construct: expressed in transfected cells
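Throughout, for IMAP Y2H IMAP1 (number of IST): yeast two-hybrid screens using HCV genotype 1b proteins fused to Gal4-DB as baits against prey cDNA libraries from human spleen and foetal brain, IMAP1 via transformation and IMAP2 via mating.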
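Throughout, for Interaction with viral protein: yeast two-hybrid screens using HCV genotype 1b proteins fused to Gal4-DB as baits against prey cDNA libraries from human spleen and foetal brain, IMAP1 via transformation and IMAP2 via mating.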

T1 sequence (Q9WMX2 1027-1657): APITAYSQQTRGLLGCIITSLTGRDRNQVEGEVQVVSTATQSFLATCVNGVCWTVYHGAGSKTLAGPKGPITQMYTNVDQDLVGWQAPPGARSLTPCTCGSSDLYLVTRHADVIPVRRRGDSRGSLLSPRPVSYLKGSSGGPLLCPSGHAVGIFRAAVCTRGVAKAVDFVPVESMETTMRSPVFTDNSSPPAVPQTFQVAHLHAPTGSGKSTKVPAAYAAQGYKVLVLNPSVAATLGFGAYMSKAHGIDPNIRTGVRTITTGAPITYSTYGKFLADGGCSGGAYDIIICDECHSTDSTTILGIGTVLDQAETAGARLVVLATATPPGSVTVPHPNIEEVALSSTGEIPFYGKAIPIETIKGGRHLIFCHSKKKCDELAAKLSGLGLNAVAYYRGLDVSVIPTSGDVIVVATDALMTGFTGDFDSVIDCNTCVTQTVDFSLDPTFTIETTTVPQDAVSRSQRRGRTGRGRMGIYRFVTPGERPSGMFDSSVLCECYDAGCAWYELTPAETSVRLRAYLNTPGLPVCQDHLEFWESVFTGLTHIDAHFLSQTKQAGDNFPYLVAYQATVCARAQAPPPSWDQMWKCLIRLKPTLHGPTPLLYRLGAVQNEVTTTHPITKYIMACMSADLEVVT
T2 sequence (Q9WMX2 1027-1657): as above

Row | Molecule | IMAP Y2H IMAP1 (number of IST) [1] | Interaction with viral protein [2] | Y2H matrices [3]
1 | ACTN1 (protein, UniProt P12814 1-892, looked up) Alpha-actinin-1: MDHYDSQQTNDYMQPEEDWDRDLLLDPAWEKQQRKTFTAWCNSHLRKAGTQIENIEEDFRDGLKLMLLLEVISGERLAKPERGKMRVHKISNVNKALDFIASKGVKLVSIGAEEIVDGNVKMTLGMIWTIILRFAIQDISVEETSAKEGLLLWCQRKTAPYKNVNIQNFHISWKDGLGFCALIHRHRPELIDYGKLRKDDPLTNLNTAFDVAEKYLDIPKMLDAEDIVGTARPDEKAIMTYVSSFYHAFSGAQKAETAANRICKVLAVNQENEQLMEDYEKLASDLLEWIRRTIPWLENRVPENTMHAMQQKLEDFRDYRRLHKPPKVQEKCQLEINFNTLQTKLRLSNRPAFMPSEGRMVSDINNAWGCLEQVEKGYEEWLLNEIRRLERLDHLAEKFRQKASIHEAWTDGKEAMLRQKDYETATLSEIKALLKKHEAFESDLAAHQDRVEQIAAIAQELNELDYYDSPSVNARCQKICDQWDNLGALTQKRREALERTEKLLETIDQLYLEYAKRAAPFNNWMEGAMEDLQDTFIVHTIEEIQGLTTAHEQFKATLPDADKERLAILGIHNEVSKIVQTYHVNMAGTNPYTTITPQEINGKWDHVRQLVPRRDQALTEEHARQQHNERLRKQFGAQANVIGPWIQTKMEEIGRISIEMHGTLEDQLSHLRQYEKSIVNYKPKIDQLEGDHQLIQEALIFDNKHTNYTMEHIRVGWEQLLTTIARTINEVENQILTRDAKGISQEQMNEFRASFNHFDRDHSGTLGPEEFKACLISLGYDIGNDPQGEAEFARIMSIVDPNRLGVVTFQAFIDFMSRETADTDTADQVMASFKILAGDKNYITMDELRRELPPDQAEYCIARMAPYTGPDSVPGALDYMSFSTALYGESDL | 9 | NS3 | +
2 | ARFIP2 (protein, UniProt P53365 1-341, looked up) Arfaptin-2: MTDGILGKAATMEIPIHGNGEARQLPEDDGLEQDLQQVMVSGPNLNETSIVSGGYGGSGDGLIPTGSGRHPSHSTTPSGPGDEVARGIAGEKFDIVKKWGINTYKCTKQLLSERFGRGSRTVDLELELQIELLRETKRKYESVLQLGRALTAHLYSLLQTQHALGDAFADLSQKSPELQEEFGYNAETQKLLCKNGETLLGAVNFFVSSINTLVTKTMEDTLMTVKQYEAARLEYDAYRTDLEELSLGPRDAGTRGRLESAQATFQAHRDKYEKLRGDVAIKLKFLEENKIKVMHKQLLLFHNAVSAYFAGNQKQLEQTLQQFNIKLRPPGAEKPSWLEEQ | 1 | NS3 | +
3 | ARS2 (protein, UniProt Q9BXP5 2-876, looked up) Serrate RNA effector molecule …: GDSDDEYDRRRRDKFRRERSDYDRSRERDERRRGDDWNDREWDRGRERRSRGEYRDYDRNRRERFSPPRHELSPPQKRMRRDWDEHSSDPYHSGYEMPYAGGGGGPTYGPPQPWGHPDVHIMQHHVLPIQARLGSIAEIDLGVPPPVMKTFKEFLLSLDDSVDETEAVKRYNDYKLDFRRQQMQDFFLAHKDEEWFRSKYHPDEVGKRRQEARGALQNRLRVFLSLMETGWFDNLLLDIDKADAIVKMLDAAVIKMEGGTENDLRILEQEEEEEQAGKPGEPSKKEEGRAGAGLGDGERKTNDKDEKKEDGKQAENDSSNDDKTKKSEGDGDKEEKKEDSEKEAKKSSKKRNRKHSGDDSFDEGSVSESESESESGQAEEEKEEAEEALKEKEKPKEEEWEKPKDAAGLECKPRPLHKTCSLFMRNIAPNISRAEIISLCKRYPGFMRVALSEPQPERRFFRRGWVTFDRSVNIKEICWNLQNIRLRECELSPGVNRDLTRRVRNINGITQHKQIVRNDIKLAAKLIHTLDDRTQLWASEPGTPPLPTSLPSQNPILKNITDYLIEEVSAEEEELLGSSGGAPPEEPPKEGNPAEINVERDEKLIKVLDKLLLYLRIVHSLDYYNTCEYPNEDEMPNRCGIIHVRGPMPPNRISHGEVLEWQKTFEEKLTPLLSVRESLSEEEAQKMGRKDPEQEVEKFVTSNTQELGKDKWLCPLSGKKFKGPEFVRKHIFNKHAEKIEEVKKEVAFFNNFLTDAKRPALPEIKPAQPPGPAQILPPGLTPGLPYPHQTPQGLMPYGQPRPPILGYGAGAVRPAVPTGGPPYPHAPYGAGRGNYDAFRGQGGYPGKPRNRMVRGDPRAIVEYRDLDAPDDVDFF | 4 | NS3 | +
4 | ANKRD28 (protein, UniProt O15084 1-1053, looked up) Serine/threonine-protein …: MAFLKLRDQPSLVQAIFNGDPDEVRALIFKKEDVNFQDNEKRTPLHAAAYLGDAEIIELLILSGARVNAKDSKWLTPLHRAVASCSEEAVQVLLKHSADVNARDKNWQTPLHIAAANKAVKCAEALVPLLSNVNVSDRAGRTALHHAAFSGHGEMVKLLLSRGANINAFDKKDRRAIHWAAYMGHIEVVKLLVSHGAEVTCKDKKSYTPLHAAASSGMISVVKYLLDLGVDMNEPNAYGNTPLHVACYNGQDVVVNELIDCGAIVNQKNEKGFTPLHFAAASTHGALCLELLVGNGADVNMKSKDGKTPLHMTALHGRFSRSQTIIQSGAVIDCEDKNGNTPLHIAARYGHELLINTLITSGADTAKRGIHGMFPLHLAALSGFSDCCRKLLSSGFDIDTPDDFGRTCLHAAAAGGNLECLNLLLNTGADFNKKDKFGRSPLHYAAANCNYQCLFALVGSGASVNDLDERGCTPLHYAATSDTDGKCLEYLLRNDANPGIRDKQGYNAVHYSAAYGHRLCLQLIASETPLDVLMETSGTDMLSDSDNRATISPLHLAAYHGHHQALEVLVQSLLDLDVRNSSGRTPLDLAAFKGHVECVDVLINQGASILVKDYILKRTPIHAAATNGHSECLRLLIGNAEPQNAVDIQDGNGQTPLMLSVLNGHTDCVYSLLNKGANVDAKDKWGRTALHRGAVTGHEECVDALLQHGAKCLLRDSRGRTPIHLSAACGHIGVLGALLQSAASMDANPATADNHGYTALHWACYNGHETCVELLLEQEVFQKTEGNAFSPLHCAVINDNEGAAEMLIDTLGASIVNATDSKGRTPLHAAAFTDHVECLQLLLSHNAQVNSVDSTGKTPLMMAAENGQTNTVEMLVSSASAELTLQDNSKNTALHLACSKGHETSALLILEKITDRNLINATNAALQTPLHVAARNGLTMVVQELLGKGASVLAVDENGYTPALACAPNKDVADCLALILATMMPVSSSSPLSSLTFNAINRYTNTSKTVSFEALPIMRNEPSSYCSFNNIGGEQEYLYTDVDELNDSDSETY | 1 | NS3 | +
5 | AEBP1 (protein, UniProt Q8IUX7 26-1158, looked up) Adipocyte enhancer-binding …: QTVLTDDEIEEFLEGFLSELEPEPREDDVEAPPPPEPTPRVRKAQAGGKPGKRPGTAAEVPPEKTKDKGKKGKKDKGPKVPKESLEGSPRPPKKGKEKPPKATKKPKEKPPKATKKPKEKPPKATKKPKEKPPKATKKPPSGKRPPILAPSETLEWPLPPPPSPGPEELPQEGGAPLSNNWQNPGEETHVEAREHQPEPEEETEQPTLDYNDQIEREDYEDFEYIRRQKQPRPPPSRRRRPERVWPEPPEEKAPAPAPEERIEPPVKPLLPPLPPDYGDGYVIPNYDDMDYYFGPPPPQKPDAERQTDEEKEELKKPKKEDSSPKEETDKWAVEKGKDHKEPRKGEELEEEWTPTEKVKCPPIGMESHRIEDNQIRASSMLRHGLGAQRGRLNMQTGATEDDYYDGAWCAEDDARTQWIEVDTRRTTRFTGVITQGRDSSIHDDFVTTFFVGFSNDSQTWVMYTNGYEEMTFHGNVDKDTPVLSELPEPVVARFIRIYPLTWNGSLCMRLEVLGCSVAPVYSYYAQNEVVATDDLDFRHHSYKDMRQLMKVVNEECPTITRTYSLGKSSRGLKIYAMEISDNPGEHELGEPEFRYTAGIHGNEVLGRELLLLLMQYLCREYRDGNPRVRSLVQDTRIHLVPSLNPDGYEVAAQMGSEFGNWALGLWTEEGFDIFEDFPDLNSVLWGAEERKWVPYRVPNNNLPIPERYLSPDATVSTEVRAIIAWMEKNPFVLGANLNGGERLVSYPYDMARTPTQEQLLAAAMAAARGEDEDEVSEAQETPDHAIFRWLAISFASAHLTLTEPYRGGCQAQDYTGGMGIVNGAKWNPRTGTINDFSYLHTNCLELSFYLGCDKFPHESELPREWENNKEALLTFMEQVHRGIKGVVTDEQGIPIANATISVSGINHGVKTASGGDYWRILNPGEYRVTAHAEGYTPSAKTCNVDYDIGATQCNFILARSNWKRIREIMAMNGNRPIPHIDPSRPMTPQQRRLQQRRLQHRLRLRAQMRLRRLNATTTLGPHTVPPTLPPAPATTLSTTIEPWGLIPPTTAGWEESETETYTEVVTEFGTEVEPEFGTKVEPEFETQLEPEFETQLEPEFEEEEEEEKEEEIATGQAFPFTTVETYTVNFGDF | 2 | NS3 | +
6 | ARHGEF6 (protein, UniProt Q15052 1-776, looked up) Rho guanine nucleotide …: MNPEEQIVTWLISLGVLESPKKTICDPEEFLKSSLKNGVVLCKLINRLMPGSVEKFCLDPQTEADCINNINDFLKGCATLQVEIFDPDDLYSGVNFSKVLSTLLAVNKATEDQLSERPCGRSSSLSAANTSQTNPQGAVSSTVSGLQRQSKTVEMTENGSHQLIVKARFNFKQTNEDELSVCKGDIIYVTRVEEGGWWEGTLNGRTGWFPSNYVREIKSSERPLSPKAVKGFETAPLTKNYYTVVLQNILDTEKEYAKELQSLLVTYLRPLQSNNNLSTVEVTSLLGNFEEVCTFQQTLCQALEECSKFPENQHKVGGCLLSLMPHFKSMYLAYCANHPSAVNVLTQHSDELEQFMENQGASSPGILILTTNLSKPFMRLEKYVTLLQELERHMEDTHPDHQDILKAIVAFKTLMGQCQDLRKRKQLELQILSEPIQAWEGEDIKNLGNVIFMSQVMVQYGACEEKEERYLMLFSNVLIMLSASPRMSGFIYQGKIPIAGTVVTRLDEIEGNDCTFEITGNTVERIVVHCNNNQDFQEWLEQLNRLIRGPASCSSLSKTSSSSCSAHSSFSSTGQPRGPLEPPQIIKPWSLSCLRPAPPLRPSAALGYKERMSYILKESSKSPKTMKKFLHKRKTERKPSEEEYVIRKSTAALEEDAQILKVIEAYCTSANFQQGHGSSTRKDSIPQVLLPEEEKLIIEETRSNGQTIMEEKSLVDTVYALKDEVRELKQENKRMKQCLEEELKSRRDLEKLVRRLLKQTDECIRGESSSKTSILP | 1 | NS3 | +
